According to patent US8383582B2, “Inhibitor against forming biofilm comprising κ-casein macropeptide” (Industry Foundation of Chonnam National University, priority 2010, dated 2013):

Test system: L. monocytogenes 3990 and 18
Assay: Flow chamber biofilm assay (glass capillary tubes, continuous flow)
Format: cell-based, Listeria monocytogenes
Settings: 0.4 mg/ml CMP
Experimental: Under continuous flow conditions, biofilms were grown in glass capillary tubes by using a slight modification of the previously described method (Purevdorj et al., 2002). The flow chambers, with individual channel dimensions of 3 mm×3 mm×50 mm (Stovall Life Sciences, Inc., Greensboro, N.C., USA), were inoculated with 1 ml (˜10^9 CFU/ml) of the overnight cultures of L. monocytogenes grown in TSBYE. The inoculum was injected to fill the inside of the glass tubes by using a syringe. The tubing upstream of the glass tube was clamped, and the system allowed standing without flow for 30 min at room temperature. After inoculation, the capillary tubes were mounted on a standard microscope slide. The system was switched to continuous culture mode by delivering MWB to the home-made carboy with a flow rate of 0.1 ml/min at 30° C. […] The biofilms developed in the flow chambers were monitored by using transmitted light and 10× objective lenses with an Olympus CH2 microscope (Olympus, Tokyo, Japan).

## κ-casein macropeptide [CMP]
Same incubation times as control (12-18 h)
  microcolonies or aggregates seen: very few microcolonies or aggregates
Strains 3990 and 18, 24 h, glass capillary tubes, continuous flow
  biofilm biomass compared to control: decreased biomass
